One assay concerns DYT-TOR1A MEF EVs. Briefly: Quantitative LC-MS/MS proteomics of EVs from drug-treated DYT-TOR1A MEF cultures (ritonavir, salubrinal). Particulars: EV protein abundance; for RTV Corrective Direction: DYT + RTV (ritonavir) vs DYT, direction compared with DYT/WT; for DYT + RTV/DYT Cohen's d: ritonavir (RTV)-treated DYT vs DYT. Also on record: key to RTV Corrective Direction / RTV Corrective Direction, Grwd1 / RTV Corrective Direction, Srrm2 / RTV Corrective Direction, Rbm17 / RTV Corrective Direction, Dcaf8 / RTV Corrective Direction, Edil3 / RTV Corrective Direction, Timp3 / RTV Corrective Direction, Heatr3 / RTV Corrective Direction, Brd4 / RTV Corrective Direction, P3h4 / RTV Corrective Direction, Pacsin3 / RTV Corrective Direction, Naa50 / RTV Corrective Direction, Lpar6 / RTV Corrective Direction, Ndrg1 / RTV Corrective Direction, Kntc1 / RTV Corrective Direction, Cdk11b / RTV Corrective Direction, Sumo1 / RTV Corrective Direction, Lsm4 / RTV Corrective Direction, Hmga2 / RTV Corrective Direction, Cstf1 / RTV Corrective Direction, Tes / RTV Corrective Direction, Sbno1 / RTV Corrective Direction, Unc119b / RTV Corrective Direction, Cfdp1 / RTV Corrective Direction, Sec61b: YES = protein abundance effect opposite to DYT/WT. In kind it is cell-based, mouse.

The subject of another assay is WT MEF EVs. Briefly: Quantitative LC-MS/MS proteomics of EVs from ISRIB-treated WT MEF cultures. Format: cell-based, mouse. Set-up: key to ISRIB and DYT Parallel Direction / ISRIB and DYT Parallel Direction, Ctdsp1 / ISRIB and DYT Parallel Direction, Pcdh19 / ISRIB and DYT Parallel Direction, Tspan7 / ISRIB and DYT Parallel Direction, Myo1e / ISRIB and DYT Parallel Direction, Plpp3 / ISRIB and DYT Parallel Direction, Sh3bp4 / ISRIB and DYT Parallel Direction, Dnajc7 / ISRIB and DYT Parallel Direction, Drg1 / ISRIB and DYT Parallel Direction, Maea: YES = protein abundance effect similar to DYT/WT. The following applies: EV protein abundance; for WT + ISRIB/WT Cohen's d: ISRIB-treated WT vs WT; for ISRIB and DYT Parallel Direction: WT + ISRIB vs WT, direction compared with DYT/WT.

B1: Col6a1 (protein, UniProt Q04857 20-1025, looked up)
Collagen alpha-1(VI) chain: QDIQGSKAIAFQDCPVDLFFVLDTSESVALRLKPYGALVDKVKSFTKRFIDNLRDRYYRCDRNLVWNAGALHYSDEVEIIRGLTRMPSGRDELKASVDAVKYFGKGTYTDCAIKKGLEELLIGGSHLKENKYLIVVTDGHPLEGYKEPCGGLEDAVNEAKHLGIKVFSVAITPDHLEPRLSIIATDHTYRRNFTAADWGHSRDAEEVISQTIDTIVDMIKNNVEQVCCSFECQAARGPPGPRGDPGYEGERGKPGLPGEKGEAGDPGRPGDLGPVGYQGMKGEKGSRGEKGSRGPKGYKGEKGKRGIDGVDGMKGETGYPGLPGCKGSPGFDGIQGPPGPKGDAGAFGMKGEKGEAGADGEAGRPGNSGSPGDEGDPGEPGPPGEKGEAGDEGNAGPDGAPGERGGPGERGPRGTPGVRGPRGDPGEAGPQGDQGREGPVGIPGDSGEAGPIGPKGYRGDEGPPGPEGLRGAPGPVGPPGDPGLMGERGEDGPPGNGTEGFPGFPGYPGNRGPPGLNGTKGYPGLKGDEGEVGDPGEDNNDISPRGVKGAKGYRGPEGPQGPPGHVGPPGPDECEILDIIMKMCSCCECTCGPIDILFVLDSSESIGLQNFEIAKDFIIKVIDRLSKDELVKFEPGQSHAGVVQYSHNQMQEHVDMRSPNVRNAQDFKEAVKKLQWMAGGTFTGEALQYTRDRLLPPTQNNRIALVITDGRSDTQRDTTPLSVLCGADIQVVSVGIKDVFGFVAGSDQLNVISCQGLSQGRPGISLVKENYAELLDDGFLKNITAQICIDKKCPDYTCPITFSSPADITILLDSSASVGSHNFETTKVFAKRLAERFLSAGRADPSQDVRVAVVQYSGQGQQQPGRAALQFLQNYTVLASSVDSMDFINDATDVNDALSYVTRFYREASSGATKKRVLLFSDGNSQGATAEAIEKAVQEAQRAGIEIFVVVVGPQVNEPHIRVLVTGKTAEYDVAFGERHLFRVPNYQALLRGVLYQTVSRKVALG
For B1, in the assay on DYT-TOR1A MEF EVs, the “RTV Corrective Direction” value is “YES” and the “DYT + RTV/DYT Cohen's d” value is recorded as −1.96. Further, in the assay on WT MEF EVs, the “WT + ISRIB/WT Cohen's d” value was found to be 0.14; the “ISRIB and DYT Parallel Direction” value is on record as “YES”.

B2: Fgfr1 (protein, UniProt P16092 22-822, looked up)
Fibroblast growth factor …: RPAPTLPEQAQPWGVPVEVESLLVHPGDLLQLRCRLRDDVQSINWLRDGVQLVESNRTRITGEEVEVRDSIPADSGLYACVTSSPSGSDTTYFSVNVSDALPSSEDDDDDDDSSSEEKETDNTKPNRRPVAPYWTSPEKMEKKLHAVPAAKTVKFKCPSSGTPNPTLRWLKNGKEFKPDHRIGGYKVRYATWSIIMDSVVPSDKGNYTCIVENEYGSINHTYQLDVVERSPHRPILQAGLPANKTVALGSNVEFMCKVYSDPQPHIQWLKHIEVNGSKIGPDNLPYVQILKTAGVNTTDKEMEVLHLRNVSFEDAGEYTCLAGNSIGLSHHSAWLTVLEALEERPAVMTSPLYLEIIIYCTGAFLISCMLGSVIIYKMKSGTKKSDFHSQMAVHKLAKSIPLRRQVTVSADSSASMNSGVLLVRPSRLSSSGTPMLAGVSEYELPEDPRWELPRDRLVLGKPLGEGCFGQVVLAEAIGLDKDKPNRVTKVAVKMLKSDATEKDLSDLISEMEMMKMIGKHKNIINLLGACTQDGPLYVIVEYASKGNLREYLQARRPPGLEYCYNPSHNPEEQLSSKDLVSCAYQVARGMEYLASKKCIHRDLAARNVLVTEDNVMKIADFGLARDIHHIDYYKKTTNGRLPVKWMAPEALFDRIYTHQSDVWSFGVLLWEIFTLGGSPYPGVPVEELFKLLKEGHRMDKPSNCTNELYMMMRDCWHAVPSQRPTFKQLVEDLDRIVALTSNQEYLDLSIPLDQYSPSFPDTRSSTCSSGEDSVFSHEPLPEEPCLPRHPTQLANSGLKRR
With B2, in the assay on DYT-TOR1A MEF EVs, the “RTV Corrective Direction” value is reported as “YES” and the “DYT + RTV/DYT Cohen's d” value is given as −2.81. In addition, in the assay on WT MEF EVs, the “WT + ISRIB/WT Cohen's d” value turned out to be 5.66; the “ISRIB and DYT Parallel Direction” value is reported as “YES”.

These data come from patent publication US20260266848A1, “COMPOSITIONS AND METHODS FOR DIAGNOSING AND TREATING DYSTONIA” (Duke University, priority 2023, published 2026).
